Reference: article doi:10.1101/2020.09.01.276469 (bioRxiv, 2020)

B1: importin-α/β heterodimer (GST-importin-α bound to importin-β) (complex)
chain 1: not shown
chain 2: MELVTILEKTVSPDRNELEAAQKFLEQAAVENLPTFVVELSKVLANPANSQVARVAAGLQIKNPLTSRDPDVKAQYQQRWLAIDASARGEIKTYVLRTLGTESYRPSSASQCVAGIACAEITVNQWPQLIPQLVANVTDPNSTERMKESTLEAIGYICQDIDPEQLQHKSNEILTAIIQGMRKEEPSNNVRLAATNALLNSLEFTKANFDKESERHYIMQVVCEATQCPDTRVRVAALQNLVKIMSLYYQYMETYMGPALFAITVEAMKNEIDEVALQGIEFWSNVCDEEMDLAIEASEAAEQGRPPEHTSKFYAKGALQYLVPILTQTLTKQDENDDDDDWNPCKAAGVCLMLLATCCEDDIVPHVLPFIKEHIKNPDWRYRDAAVMAFGCILEGPESCQLKPLVIQAMPTLIELMKDPSVVVRDTTAWTVGRICELLPEAAINDVYLAPLLQCLIEGLGAEPRVASNVCWAFSSLAEAAYEAADVADDQEEPSSYCLSSSFEVIVQKLLETTDRPDGHQNNLRSAAYEALMEIVKNSAKDCYPAVQKTTLVIMERLQQVLQVESHIQSTSDRIQFNDLQSLLCATLQNVLRKVQHQDALQISDVVMASLLRMFQSTAGSGGVQEDALMAVSTLVEVLGAEFLKYMEAFKPFLTIGLKNYAEYQVCLAAVGLVGDLCRALQSNILPFCDEMMQFLLENLGNENVHRSVKPQILSVFGDVALAIGGEFKKYLDVVLNTLQQASQAQVDKSDYDMVDYLNELREGCIEAYTGIIQGLKGDQENVHPDVMLVQPRVEFILSFIDHIAGDEDHTDSVVACGAGLIGDLCTAFGKDVLKLVEARPMIHELLTEGRRSKTNKTKTLATWATKELRKLKNQA
B2: importin-β (natural protein, Xenopus laevis, UniProt P52297 1-876, looked up)
chain: MELVTILEKTVSPDRNELEAAQKFLEQAAVENLPTFVVELSKVLANPANSQVARVAAGLQIKNPLTSRDPDVKAQYQQRWLAIDASARGEIKTYVLRTLGTESYRPSSASQCVAGIACAEITVNQWPQLIPQLVANVTDPNSTERMKESTLEAIGYICQDIDPEQLQHKSNEILTAIIQGMRKEEPSNNVRLAATNALLNSLEFTKANFDKESERHYIMQVVCEATQCPDTRVRVAALQNLVKIMSLYYQYMETYMGPALFAITVEAMKNEIDEVALQGIEFWSNVCDEEMDLAIEASEAAEQGRPPEHTSKFYAKGALQYLVPILTQTLTKQDENDDDDDWNPCKAAGVCLMLLATCCEDDIVPHVLPFIKEHIKNPDWRYRDAAVMAFGCILEGPESCQLKPLVIQAMPTLIELMKDPSVVVRDTTAWTVGRICELLPEAAINDVYLAPLLQCLIEGLGAEPRVASNVCWAFSSLAEAAYEAADVADDQEEPSSYCLSSSFEVIVQKLLETTDRPDGHQNNLRSAAYEALMEIVKNSAKDCYPAVQKTTLVIMERLQQVLQVESHIQSTSDRIQFNDLQSLLCATLQNVLRKVQHQDALQISDVVMASLLRMFQSTAGSGGVQEDALMAVSTLVEVLGAEFLKYMEAFKPFLTIGLKNYAEYQVCLAAVGLVGDLCRALQSNILPFCDEMMQFLLENLGNENVHRSVKPQILSVFGDVALAIGGEFKKYLDVVLNTLQQASQAQVDKSDYDMVDYLNELREGCIEAYTGIIQGLKGDQENVHPDVMLVQPRVEFILSFIDHIAGDEDHTDSVVACGAGLIGDLCTAFGKDVLKLVEARPMIHELLTEGRRSKTNKTKTLATWATKELRKLKNQA
B3: Targeting Protein for XKlp2 (TPX2), full length, GFP-tagged (natural protein, Xenopus laevis, UniProt Q6NUF4 1-716, looked up)
chain: MEDTQDTYSYDAPSIFNFSSFHEDHNADSWFDQVTNAENIPPDQRRLSETSVNTEQNSKVEPVQTTPSKDDVSNSATHVCDVKSQSKRSSRRMSKKHRQKLLVKMKDTHLEKETAPPEYPPCKKLKGSSSKGRHAPVIKSQSTSSHHSMTSPKPKAQLTMPSTPTVLKRRNVLVKAKNSEEQELEKMQELQKEMLENLKKNEHSMKVAITGAGQPVKTFIPVTKPVDFHFKTDDRLKRTANQPEGDGYKAVDFASELRKHPPSPVQVTKGGHTVPKPFNLSKGKRKHEEASDYVSTAEQVIAFYKRTPARYHLRSRQREMEGPSPVKMIKTKLTNPKTPLLQTKGRHRPVTCKSAAELEAEELEMINQYKFKAQELDTRILEGGPVLLKKPLVKEPTKAIGFDLEIEKRIQQREKKEEIEEETFTFHSRPCPSKMLTDVVGVPLKKLLPVTVPQSPAFALKNRVRIPAQEEKQEEMVPVIKATRMPHYGVPFKPKLVEQRQVDVCPFSFCDRDKERQLQKEKRLDELRKDEVPKFKAQPLPQFDNIRLPEKKVKMPTQQEPFDLEIEKRGASKLQRWQQQIQEELKQQKEMVVFKARPNTVVHQEPFVPKKENRSLTESLSGSIVQEGFELATAKRAKERQEFDKCLAETEAQKSLLEEEIRKRREEEEKEEISQLRQELVHKAKPIRKYRAVEVKASDVPLTVPRSPNFSDRFKC

Columns and labels:
[1] = target: B3; assay: SEC-MALS
[2] = target: GST-importin-α (full length) (Xenopus laevis); assay: SEC-MALS
[3] = target: B1; assay: BLI
importin-β = target: B2; assay: BLI
SEC-MALS = target: the molecule itself; assay: SEC-MALS
TPX2 amino acids 1-178 = target: T1, TPX2 amino acids 1-178 (Xenopus laevis, UniProt Q6NUF4 1-178); assay: BLI
T1 sequence (looked up): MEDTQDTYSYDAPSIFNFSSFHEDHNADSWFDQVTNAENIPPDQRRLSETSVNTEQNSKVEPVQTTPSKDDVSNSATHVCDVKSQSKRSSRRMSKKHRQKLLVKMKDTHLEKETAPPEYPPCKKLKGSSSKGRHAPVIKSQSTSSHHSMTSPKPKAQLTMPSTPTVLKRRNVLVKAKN

[4] = target: B3; assay: BLI
TPX2 amino acids 1-260 = target: T2, TPX2 amino acids 1-260 (Xenopus laevis, UniProt Q6NUF4 1-260); assay: BLI
T2 sequence (looked up): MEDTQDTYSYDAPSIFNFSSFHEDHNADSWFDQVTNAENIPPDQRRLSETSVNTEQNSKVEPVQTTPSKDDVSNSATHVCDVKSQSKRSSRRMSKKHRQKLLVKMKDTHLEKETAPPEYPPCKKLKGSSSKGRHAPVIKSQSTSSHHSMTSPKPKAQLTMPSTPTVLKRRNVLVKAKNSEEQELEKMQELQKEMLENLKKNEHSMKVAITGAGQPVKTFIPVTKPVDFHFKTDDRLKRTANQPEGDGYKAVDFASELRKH

Binder: B1
- stoichiometry N [1]: 1

Binder: B2
- stoichiometry N [2]: 1

Binder: B3
- Kd [3]: 75 ± 15 nM
- Kd (importin-β): 530 ± 75 nM

B4: importin-αΔIBB (importin-α without the importin-β binding domain) (domain or fragment)
chain: not shown
- stoichiometry N [1]: ≥ 1
- stoichiometry N (SEC-MALS): 2
- Kd (TPX2 amino acids 1-178): 15 ± 3 nM
- Kd [4]: 61 ± 10 nM
- Kd (TPX2 amino acids 1-260): 20 ± 4 nM

B5: TPX2 N-terminus (a.a. 1-480) (domain or fragment, Xenopus laevis, UniProt Q6NUF4 1-480, looked up)
chain: MEDTQDTYSYDAPSIFNFSSFHEDHNADSWFDQVTNAENIPPDQRRLSETSVNTEQNSKVEPVQTTPSKDDVSNSATHVCDVKSQSKRSSRRMSKKHRQKLLVKMKDTHLEKETAPPEYPPCKKLKGSSSKGRHAPVIKSQSTSSHHSMTSPKPKAQLTMPSTPTVLKRRNVLVKAKNSEEQELEKMQELQKEMLENLKKNEHSMKVAITGAGQPVKTFIPVTKPVDFHFKTDDRLKRTANQPEGDGYKAVDFASELRKHPPSPVQVTKGGHTVPKPFNLSKGKRKHEEASDYVSTAEQVIAFYKRTPARYHLRSRQREMEGPSPVKMIKTKLTNPKTPLLQTKGRHRPVTCKSAAELEAEELEMINQYKFKAQELDTRILEGGPVLLKKPLVKEPTKAIGFDLEIEKRIQQREKKEEIEEETFTFHSRPCPSKMLTDVVGVPLKKLLPVTVPQSPAFALKNRVRIPAQEEKQEEMVPVI
- Kd (importin-β): 512 ± 70 nM
